T1: MERS-CoV Spike protein (MERS-CoV, UniProt K9N5Q8 18-725)
T1 sequence: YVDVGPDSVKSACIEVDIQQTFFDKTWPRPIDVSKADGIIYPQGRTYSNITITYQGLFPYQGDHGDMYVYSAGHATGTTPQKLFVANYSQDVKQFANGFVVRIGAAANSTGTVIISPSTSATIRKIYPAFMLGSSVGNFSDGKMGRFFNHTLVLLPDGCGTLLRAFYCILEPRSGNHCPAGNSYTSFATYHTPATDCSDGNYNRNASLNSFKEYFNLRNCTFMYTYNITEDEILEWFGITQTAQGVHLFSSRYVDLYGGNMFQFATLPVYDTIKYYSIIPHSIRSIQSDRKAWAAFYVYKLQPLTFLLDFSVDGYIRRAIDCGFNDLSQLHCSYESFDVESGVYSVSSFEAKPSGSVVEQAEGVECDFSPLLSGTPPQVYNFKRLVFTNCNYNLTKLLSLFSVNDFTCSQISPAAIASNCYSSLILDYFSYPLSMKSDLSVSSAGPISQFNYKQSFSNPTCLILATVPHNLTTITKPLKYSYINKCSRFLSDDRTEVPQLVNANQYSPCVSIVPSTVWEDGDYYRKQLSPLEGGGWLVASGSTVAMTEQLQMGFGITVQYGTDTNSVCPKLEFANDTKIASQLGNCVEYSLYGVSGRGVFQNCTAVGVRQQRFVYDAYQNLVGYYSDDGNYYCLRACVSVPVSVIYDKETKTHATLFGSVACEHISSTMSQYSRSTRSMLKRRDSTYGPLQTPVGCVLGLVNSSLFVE

T2: HCov-HKU1 Spike protein (HCoV-HKU1, UniProt Q5MQD0 13-760)
T2 sequence: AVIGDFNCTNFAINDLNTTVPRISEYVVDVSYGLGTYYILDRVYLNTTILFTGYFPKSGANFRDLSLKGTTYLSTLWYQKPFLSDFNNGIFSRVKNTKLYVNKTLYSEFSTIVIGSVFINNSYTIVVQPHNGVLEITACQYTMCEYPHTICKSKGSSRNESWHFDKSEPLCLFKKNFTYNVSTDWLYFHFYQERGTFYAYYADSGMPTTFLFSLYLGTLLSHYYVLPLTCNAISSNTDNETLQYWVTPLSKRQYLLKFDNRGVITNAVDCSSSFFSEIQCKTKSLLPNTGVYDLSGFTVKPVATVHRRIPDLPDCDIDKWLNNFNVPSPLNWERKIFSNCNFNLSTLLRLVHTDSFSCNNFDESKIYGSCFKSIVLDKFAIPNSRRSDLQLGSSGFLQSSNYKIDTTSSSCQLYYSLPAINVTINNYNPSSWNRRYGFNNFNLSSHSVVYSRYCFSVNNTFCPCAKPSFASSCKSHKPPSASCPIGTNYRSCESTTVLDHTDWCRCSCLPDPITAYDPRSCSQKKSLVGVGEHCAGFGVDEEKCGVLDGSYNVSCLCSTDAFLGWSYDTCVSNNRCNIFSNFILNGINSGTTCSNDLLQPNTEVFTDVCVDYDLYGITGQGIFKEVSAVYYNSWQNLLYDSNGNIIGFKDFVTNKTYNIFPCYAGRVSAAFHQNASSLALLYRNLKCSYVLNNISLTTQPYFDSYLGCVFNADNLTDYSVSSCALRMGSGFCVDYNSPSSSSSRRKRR

T3: HCoV-229E Spike protein (HCoV-229E, UniProt P15423 16-560)
T3 sequence: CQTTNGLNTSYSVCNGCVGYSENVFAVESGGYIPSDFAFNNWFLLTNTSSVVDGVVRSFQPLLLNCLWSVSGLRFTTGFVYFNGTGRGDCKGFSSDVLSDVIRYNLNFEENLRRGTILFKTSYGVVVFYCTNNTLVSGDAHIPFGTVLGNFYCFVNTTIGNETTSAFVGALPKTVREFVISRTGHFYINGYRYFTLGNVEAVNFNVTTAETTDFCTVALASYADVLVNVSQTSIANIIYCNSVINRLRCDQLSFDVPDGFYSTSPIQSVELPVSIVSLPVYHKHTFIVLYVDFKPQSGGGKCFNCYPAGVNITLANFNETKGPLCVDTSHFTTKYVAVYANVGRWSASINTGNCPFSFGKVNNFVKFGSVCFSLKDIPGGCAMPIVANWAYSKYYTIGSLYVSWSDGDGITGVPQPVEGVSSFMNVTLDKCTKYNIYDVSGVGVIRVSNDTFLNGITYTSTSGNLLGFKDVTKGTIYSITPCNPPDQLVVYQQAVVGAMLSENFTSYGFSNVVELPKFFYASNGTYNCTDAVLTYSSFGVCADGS

T4: HCoV-NL63 Spike protein (HCoV-NL63, UniProt Q6Q1S2 19-717)
T4 sequence: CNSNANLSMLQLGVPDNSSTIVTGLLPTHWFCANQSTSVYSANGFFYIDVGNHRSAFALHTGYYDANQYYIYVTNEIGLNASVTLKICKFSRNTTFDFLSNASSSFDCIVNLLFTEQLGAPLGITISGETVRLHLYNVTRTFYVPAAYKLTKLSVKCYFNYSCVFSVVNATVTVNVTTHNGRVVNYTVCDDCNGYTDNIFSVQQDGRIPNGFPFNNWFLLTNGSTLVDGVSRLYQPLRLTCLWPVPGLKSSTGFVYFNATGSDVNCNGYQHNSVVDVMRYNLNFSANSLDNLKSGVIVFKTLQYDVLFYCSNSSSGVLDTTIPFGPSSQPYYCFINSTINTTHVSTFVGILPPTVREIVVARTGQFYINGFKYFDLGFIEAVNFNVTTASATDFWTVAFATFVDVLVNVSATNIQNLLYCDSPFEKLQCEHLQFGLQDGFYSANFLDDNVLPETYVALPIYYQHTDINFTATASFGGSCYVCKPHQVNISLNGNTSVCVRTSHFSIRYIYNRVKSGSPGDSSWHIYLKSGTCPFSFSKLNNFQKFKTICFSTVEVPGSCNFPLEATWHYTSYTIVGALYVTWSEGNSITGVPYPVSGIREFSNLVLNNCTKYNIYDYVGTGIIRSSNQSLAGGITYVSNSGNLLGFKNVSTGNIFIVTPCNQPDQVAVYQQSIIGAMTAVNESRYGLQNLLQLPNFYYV


What was measured:
[1] = molecular target: SARS-CoV-2 glycoprotein S (SARS-CoV-2, UniProt P0DTC2 14-1273); test: cell-based or functional assay
[2] = molecular target: T5, receptor binding domain (RBD) of the S1-subunit of SARS-CoV-2 glycoprotein S (SARS-CoV-2, UniProt P0DTC2 319-541); test: ACE2:RBD competition, antibody at 5 µg/ml
[3] = molecular target: T5, receptor binding domain (RBD) of the …; test: ACE2:RBD competition, antibody at 0.5 µg/ml
[4] = molecular target: receptor binding domain (RBD) of the S1-subunit of SARS-CoV-2 glycoprotein S (SARS-CoV-2, UniProt P0DTC2 319-541); test: RBD-binding quality as compared to STE90-C11, wt
[5] = molecular target: SARS-CoV-1 Spike protein (SARS-CoV-1, UniProt P59594 14-667); test: titration ELISA
[6] = molecular target: T1, MERS-CoV Spike protein; test: titration ELISA
[7] = molecular target: T2, HCov-HKU1 Spike protein; test: titration ELISA
[8] = molecular target: T3, HCoV-229E Spike protein; test: titration ELISA
[9] = molecular target: T4, HCoV-NL63 Spike protein; test: titration ELISA

Binder	Confluence Score in VERO E6 cell assay [1] [%]	ACE2 bound to RBD at 5 µg/ml antibody [2] [%]	ACE2 bound to RBD at 0.5 µg/ml antibody [3] [%]	binding result [4]	binding result [5]	binding result [6]	binding result [7]	binding result [8]	binding result [9]
YU505-E01 (antibody, V domains shown) VH: QVQLVQSGAEVKKPGSSVKVSCKASGGTFSSYSIVWVRQAPGQGLEWMGGIIPIFGTTNYAQKFQGRVTITADESTSTAFMELSNLKSEDTAVYFCARSLGATRDYWGQGTLVTVSS VL: SYVLTQPPSVSEAPRQRVTISCSGSSSNIGNNAVNWYQQLPGKAPKLLIYYDDLLPSGVSDRFSGSKSGTSASLAISGLQSEDEADYYCAAWDDSLNGPVFGGGTKVTVL	> 98	< 25	< 50	–	–	–	–	–	–
hybrid antibody: VL YU537-H11 (SEQ ID No. 402) with VH STE90-C11 (SEQ ID No. 1305) (antibody, V domains shown) VH: QVQLVESGGGLVQPGGSLRLSCAASGLTVSSNYMSWVRQAPGKGLEWVSVIYSGGSTYYADSVKGRFTISRDDSKNTLYLQMNSLRAEDTAVYYCARDVADAFDIWGQGTMVTVSS VL: QSVLTQPPSVSAAPGQKVTISCSGSSSNIGNNYVSWYQQLPGTAPKLLIYDTNKRPSGIPDRFSGSKSGTSATLGITGLQTGDEADYYCATWDSSLSVGVFGGGTKLTVL	–	–	–	binds	–	–	–	–	–
YU537-H11 (antibody, V domains shown) VH: EVQLLESGGGLIQPGGSLRLSCAASGLTVSSNYMSWVRQAPGKGLEWVSVIYSGGSTYYADSVKGRFTISRDNSKNALYLQMNSLRAEDTAVYYCARGESGSPYGMDVWGQGTLVTVSS VL: QSVLTQPPSVSAAPGQKVTISCSGSSSNIGNNYVSWYQQLPGTAPKLLIYDTNKRPSGIPDRFSGSKSGTSATLGITGLQTGDEADYYCATWDSSLSVGVFGGGTKLTVL	–	–	–	–	no binding	no binding	no binding	no binding	no binding
STE90-C11 (antibody, V domains shown) VH: QVQLVESGGGLVQPGGSLRLSCAASGLTVSSNYMSWVRQAPGKGLEWVSVIYSGGSTYYADSVKGRFTISRDDSKNTLYLQMNSLRAEDTAVYYCARDVADAFDIWGQGTMVTVSS VL: DIVMTQSPSFLSASVGDRVTITCRASQGISSYLAWYQQKPGKAPKLLIYAASTLQSGVPSRFSGSGSGTEFTLTISSLQPEDFATYYCQQLNSYPPFTFGPGTKVDIK	–	–	–	–	no binding	no binding	no binding	no binding	no binding
YU505-A01 (antibody, V domains shown) VH: QVQLVQSGAEVKKPGASVKVSCKASGYTFTSYYMHWVRQAPGQGLEWMGIINPSGGSTSYAQKFQGRVTMTRDTSTSTVYMELSSLRSEDTAVYYCARDRHYYDSSGSSQATFLFDYWGQGTLVTVSS VL: QSVLTQPPSVSGAPGQRVTISCTGSSSNIGAGYDVHWYQQLPGTAPKLLIYGNSNRPSGVPDRFSGSKSGTSASLAITGLQAEDEADYYCQSYDSSLNVFGTGTKLTVL	> 99	< 30	< 60	–	–	–	–	–	–
YU505-A02 (antibody, V domains shown) VH: QVQLVESGAEVKKPGSSVKVSCKASGGTFSSYAISWVRQAPGQGLEWMGGIIPIFGTANYAQKFQGRVTITADESTSTAYMELSSLRSEDTAVYYCARQIWAYDSSGYPVPAEYFQHWGQGTLVTVSS VL: QSVLTQPPSVSGAPGQRVTISCTGSSSNIGAGYDVHWYQQLPGTAPKLLIYGNSNRPSGVPDRFSGSKSGTSASLAITGLQAEDEADYYCQSYDSSLSGVVFGGGTKLTVL [YU505-A02, listing 1 of 2 here]	> 99	< 30	< 60	–	–	–	–	–	–
YU505-A02 (antibody, V domains shown) VH: QVQLVESGAEVKKPGSSVKVSCKASGGTFSSYAISWVRQAPGQGLEWMGGIIPIFGTANYAQKFQGRVTITADESTSTAYMELSSLRSEDTAVYYCARQIWAYDSSGYPVPAEYFQHWGQGTLVTVSS VL: QSVLTQPPSVSGAPGQRVTISCTGSSSNIGAGYDVHWYQQLPGTAPKLLIYGNSNRPSGVPDRFSGSKSGTSASLAITGLQAEDEADYYCQSYDSSLSGVVFGGGTKLTVL [YU505-A02, listing 2 of 2 here]	–	–	–	–	no binding	no binding	no binding	no binding	no binding
YU505-F05 (antibody, V domains shown) VH: EVQLLESGGGVVQPGRSLRLSCAASGFTFSSYGMHWVRQAPGKGLEWVAVMSYDGSKKYYADSVKGRFTISRDNSKNTLYLQMNSLRAEDTAVYYCVTQGMDVWGQGTLVTVSS VL: QSVLTQPPSVSVAPGKTARITCGGNNIGSKSVHWYQQKPGQAPVLVIYYISDRPSGIPERFSGSNSGNTATLTISRVEAGDEAAYYCHVWDSSSDHVVFGGGTKLTVL	> 95	< 30	< 60	–	–	–	–	–	–
YU536-D04 (antibody, V domains shown) VH: QVQLVQSGGGLVQPGGSLRLSCAASGLTVSSNYMSWVRQAPGKGLEWVSVIYSGGSTYYADSVKGRFIISRDNSKNTLYLQMNSLRAEDTAVYYCARDLVVMGLDVWGKGTLVTVSS VL: DIQLTQSPSSLSASVGDRVTITCRASQGISSYLAWYQQKPGKAPKLLIYAASTLQSGVPSRFSGSGSGTDFTLTISSLQPEDFATYYCQQLNSYPITFGQGTKLEIK	–	–	–	–	no binding	no binding	no binding	no binding	no binding
